Source: the supplement of paper PMC11246515
± gives the standard deviation of the averaged measurements.

Test: total protein half-life in vivo (active degradation + dilution); higher = more stable protein
[1] = E. coli NCM3722 delta-clpP delta-lon delta-hslV, growth: N-lim chemostat, doubling time 6 h
[2] = E. coli NCM3722 delta-clpP, growth: N-lim chemostat, doubling time 6 h
[3] = E. coli NCM3722 delta-hslV, growth: N-lim chemostat, doubling time 6 h
[4] = E. coli NCM3722 delta-lon, growth: N-lim chemostat, doubling time 6 h
[5] = E. coli NCM3722 delta-smpB, growth: N-lim chemostat, doubling time 6 h
[6] = wild type E. coli NCM3722, growth: C-lim chemostat, doubling time 3 h
[7] = wild type E. coli NCM3722, growth: C-lim chemostat, doubling time 6 h
[8] = wild type E. coli NCM3722, growth: C-lim chemostat, doubling time 12 h
[9] = wild type E. coli NCM3722, growth: N-lim chemostat, doubling time 6 h
[10] = wild type E. coli NCM3722, growth: N-lim chemostat, doubling time 12 h
[11] = wild type E. coli NCM3722, growth: P-lim chemostat, doubling time 12 h
[12] = wild type E. coli NCM3722, growth: P-lim chemostat, doubling time 6 h

Sequence | total protein half-life in vivo [1] [h] | total protein half-life in vivo [2] [h] | total protein half-life in vivo [3] [h] | total protein half-life in vivo [4] [h] | total protein half-life in vivo [5] [h] | total protein half-life in vivo [6] [h] | total protein half-life in vivo [7] [h] | total protein half-life in vivo [8] [h] | total protein half-life in vivo [9] [h] | total protein half-life in vivo [10] [h] | total protein half-life in vivo [11] [h] | total protein half-life in vivo [12] [h]
MATTHLDVCAVVPAAGFGRRMQTECPKQYLSIGNQTILEHSVHALLAHPRVKRVVIAISPGDSRFAQLPLANHPQITVVDGGDERADSVLAGLKAAGDAQWVLVHDAARPCLHQDDLARLLALSETSRTGGILAAPVRDTMKRAEPGKNAIAHTVDRNGLWHALTPQFFPRELLHDCLTRALNEGATITDEASALEYCGFHPQLVEGRADNIKVTRPEDLALAEFYLTRTIHQENT | 4.65 ± 0.39 | 5.096 ± 0.047 | 5.2 ± 1.2 | 4.6 ± 2.6 | 4.66 ± 0.47 | 3.29 ± 0.43 | 6.7 ± 1.2 | 10.6 ± 1.2 | 5.66 ± 1.1 | 8.34 ± 2 | 11.96 ± 0.058 | –
MATTQQSGFAPAASPLASTIVQTPDDAIVAGFTSIPSQGDNMPAYHARPKQSDGPLPVVIVVQEIFGVHEHIRDICRRLALEGYLAIAPELYFREGDPNDFADIPTLLSGLVAKVPDSQVLADLDHVASWASRNGGDVHRLMITGFCWGGRITWLYAAHNPQLKAAVAWYGKLTGDKSLNSPKQPVDIATDLNAPILGLYGGQDNSIPQESVETMRQALRAANAKAEIIVYPDAGHAFNADYRPSYHAASAEDGWQRMLEWFKQYGGKKSL | 4.8 ± 0.66 | 3.82 ± 0.21 | 4.01 ± 0.11 | 4.18 ± 0.37 | 3.92 ± 0.051 | 2.59 ± 0.14 | 4.52 ± 0.53 | 8.52 ± 2.4 | 3.85 ± 0.1 | 5.35 ± 1.5 | 8.35 ± 0.2 | 4.06 ± 0.17
MATTTAECLTQETMDYHALNAMLNLYDSAGRIQFDKDRQAVDAFIATHVRPNSVTFSSQQQRLNWLVNEGYYDESVLNRYSRDFVITLFTHAHTSGFRFQTFLGAWKFYTSYTLKTFDGKRYLEDFADRVTMVALTLAQGDETLALQLTDEMLSGRFQPATPTFLNCGKQQRGELVSCFLLRIEDNMESIGRAVNSALQLSKRGGGVAFLLSNLREAGAPIKRIENQSSGVIPVMKMLEDAFSYANQLGARQGAGAVYLHAHHPDILRFLDTKRENADEKIRIKTLSLGVVIPDITFHLAKENAQMALFSPYDVERVYGKPFADVAISQHYDELVADERIRKKYLNARDFFQRLAEIQFESGYPYIMYEDTVNRANPIAGRINMSNLCSEILQVNSASEYDENLDYTRTGHDISCNLGSLNIAHTMDSPDFARTVETAVRGLTAVSDMSHIRSVPSIEAGNAASHAIGLGQMNLHGYLAREGIAYGSPEALDFTNLYFYAITWHALRTSMLLARERGETFAGFKQSRYASGEYFSQYLQGNWQPKTAKVGELFTRSGITLPTREMWAQLRDDVMRYGIYNQNLQAVPPTGSISYINHATSSIHPIVAKVEIRKEGKTGRVYYPAPFMTNENLALYQDAYEIGAEKIIDTYAEATRHVDQGLSLTLFFPDTATTRDINKAQIYAWRKGIKTLYYIRLRQMALEGTEIEGCVSCAL | 4.76 ± 0.29 | 4.61 ± 2.7 | – | – | – | – | 2.61 ± 0.17 | 2.88 ± 1.4 | – | – | – | –
MAVIQDIIAALWQHDFAALADPHIVSVVYFVMFATLFLENGLLPASFLPGDSLLILAGALIAQGVMDFLPTIAILTAAASLGCWLSYIQGRWLGNTKTVKGWLAQLPAKYHQRATCMFDRHGLLALLAGRFLAFVRTLLPTMAGISGLPNRRFQFFNWLSGLLWVSVVTSFGYALSMIPFVKRHEDQVMTFLMILPIALLTAGLLGTLFVVIKKKYCNA [P0AA60] | 4.46 | 4.55 | 3.26 | – | – | 2.23 | 4.04 ± 1.4 | 7.25 | – | – | 8.67 | > 8
MAVQKNVIKGILAGTFALMLSGCVTVPDAIKGSSPTPQQDLVRVMSAPQLYVGQEARFGGKVVAVQNQQGKTRLEIATVPLDSGARPTLGEPSRGRIYADVNGFLDPVDFRGQLVTVVGPITGAVDGKIGNTPYKFMVMQVTGYKRWHLTQQVIMPPQPIDPWFYGGRGWPYGYGGWGWYNPGPARVQTVVTE [P0AA91] | 6.07 ± 0.61 | 6.3 ± 0.12 | 6.13 ± 0.12 | 6.532 ± 0.04 | 5.76 ± 0.071 | 3.01 ± 0.17 | 6.05 ± 0.21 | 10.7 ± 2.4 | 6.52 ± 0.45 | 13.7 ± 1.7 | – | 6.13 ± 0.1
MAYFLDFDERALKEWRKLGSTVREQLKKKLVEVLESPRIEANKLRGMPDCYKIKLRSSGYRLVYQVIDEKVVVFVISVGKRERSEVYSEAVKRIL [P0C077] | 4.02 ± 0.45 | 3.59 ± 0.8 | 2.54 ± 0.14 | 3.36 ± 0.24 | 2.83 ± 0.12 | 3 ± 0.35 | 4.25 ± 0.73 | 6.2 ± 0.85 | 2.58 ± 0.06 | 3.73 ± 0.099 | 11.3 ± 0.5 | 3.75 ± 0.74
MAYSKIRQPKLSDVIEQQLEFLILEGTLRPGEKLPPERELAKQFDVSRPSLREAIQRLEAKGLLLRRQGGGTFVQSSLWQSFSDPLVELLSDHPESQYDLLETRHALEGIAAYYAALRSTDEDKERIRELHHAIELAQQSGDLDAESNAVLQYQIAVTEAAHNVVLLHLLRCMEPMLAQNVRQNFELLYSRREMLPLVSSHRTRIFEAIMAGKPEEAREASHRHLAFIEEILLDRSREESRRERSLRRLEQRKN [P0ACL9] | 5.54 ± 0.1 | 5.3 ± 0.09 | 4.94 ± 0.19 | 4.33 | 4.54 ± 0.35 | 2.94 ± 0.1 | 6.361 ± 0.042 | 9.49 ± 0.8 | 4.53 ± 0.67 | 9.28 | 11.2 ± 1.1 | 5.59 ± 0.71
MCEHHHAAKHILCSQCDMLVALPRLEHGQKAACPRCGTTLTVAWDAPRQRPTAYALAALFMLLLSNLFPFVNMNVAGVTSEITLLEIPGVLFSEDYASLGTFFLLFVQLVPAFCLITILLLVNRAELPVRLKEQLARVLFQLKTWGMAEIFLAGVLVSFVKLMAYGSIGVGSSFLPWCLFCVLQLRAFQCVDRRWLWDDIAPMPELRQPLKPGVTGIRQGLRSCSCCTAILPADEPVCPRCSTKGYVRRRNSLQWTLALLVTSIMLYLPANILPIMVTDLLGSKMPSTILAGVILLWSEGSYPVAAVIFLASIMVPTLKMIAIAWLCWDAKGHGKRDSERMHLIYEVVEFVGRWSMIDVFVIAVLSALVRMGGLMSIYPAMGALMFALVVIMTMFSAMTFDPRLSWDRQPESEHEES [P0AFL9] | – | – | – | – | – | – | – | – | – | 11 | – | –
MCGRFAQSQTREDYLALLAEDIERDIPYDPEPIGRYNVAPGTKVLLLSERDEHLHLDPVFWGYAPGWWDKPPLINARVETAATSRMFKPLWQHGRAICFADGWFEWKKEGDKKQPFFIYRADGQPIFMAAIGSTPFERGDEAEGFLIVTAAADQGLVDIHDRRPLVLSPEAAREWMRQEISGKEASEIAASGCVPANQFSWHPVSRAVGNVKNQGAELIQPV | 4.83 ± 0.49 | 4.014 ± 0.026 | 4.54 | 4.55 ± 0.27 | 3.52 ± 0.22 | – | 5.39 ± 0.18 | 9.42 ± 0.51 | 3.45 ± 0.065 | – | 9.67 ± 1.4 | 5.07 ± 0.74
